Measured values as given in the supplement of paper PMC12855868.

B1: library; numbered along this chain (parent)
chain: MAAAGGARLLRAASAVLGGPAGRWLHHAGSRAGSSGLLRNRGPGGSAEASRSLSVSARARSSSEDKITVHFINRDGETLTTKGKVGDSLLDVVVENNLDIDGFGACEGTLACSTCHLIFEDHIYEKLDAITDEENDMLDLAYGLTDRSRLGCQICLTKSMDNMTVRVPETVADARQSIDVGKTS

Variants of: B1
Test: scaled log2 fold change in cell abundance, elesclomol vs control (0 = silent mean, 1 = nonsense mean) (scaled log2 ratio); higher = higher viability under elesclomol (loss of FDX1 cuproptosis function)
Details: glucose 10 mM
Method: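 Deep mutational scan of full-length human FDX1: a pooled saturation-mutagenesis ORF library (every residue 2-184 mutated to all 19 amino acids plus stop, and silent codons where available) was expressed by lentivirus in FDX1-knockout ABC1 (14 days) or HEK293T (11 days) cells grown with elesclomol (ES) or DMSO control. Variant abundance came from ORF sequencing. The log2 fold change (ES vs control, mean of duplicates) was centred on the silent-variant mean (0) and scaled to the nonsense-variant mean (1). Higher values mean greater viability under ES, i.e. loss of FDX1 function in cuproptosis.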

[1] = with ABC1 FDX1 KO, elesclomol 5 nM, 14 days
[2] = with HEK293T FDX1 KO, elesclomol 40 nM, 11 days
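Further: variant abundance is its share of total variant reads in each endpoint sample, from next-generation sequencing of the integrated ORF PCR-amplified out of genomic DNA.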

Row | Variant | scaled log2 fold change [1] | scaled log2 fold change [2]
1 | P43E | 0.224 | 0.236
2 | A47V | 0.764 | 0.63
3 | L138R | -0.0868 | -0.131
4 | G83W | 0.275 | -0.151
5 | G83S | 0.0697 | -1.34
6 | S63P | 0.175 | 0.000753
7 | A7M | -0.526 | 0.892
8 | I67P | 0.222 | -0.205
9 | I67T | 0.0745 | 0.365
10 | R149Q | 0.899 | 1.02
11 | S61W | -0.113 | 0.846
12 | C152D | 1.1 | 1.19
13 | S50L | -0.847 | –
14 | A105C | 0.134 | -0.333
15 | L37T | 0.382 | 0.567
16 | I130R | -0.234 | 0.125
17 | R58E | -0.288 | -0.142
18 | L98H | 0.186 | 0.86
19 | H26C | -0.0138 | –
20 | H26K | 0.352 | –
21 | L110M | 0.297 | 0.602
22 | G76A | -0.303 | -0.122
23 | G76L | 0.0165 | -0.41
24 | E48C | 0.731 | 0.336

Row | Variant | scaled log2 fold change [1] | scaled log2 fold change [2]
25 | C115R | 1.02 | 1.68
26 | T164C | 0.25 | 0.194
27 | D179R | 0.498 | -0.221
28 | T183Q | -0.0766 | –
29 | E120N | 0.109 | 0.835
30 | G151A | 0.241 | 0.25
31 | G42Q | 0.242 | -0.336
32 | N73H | -0.0805 | -0.159
33 | G86F | 0.287 | -0.571
34 | G86E | 0.115 | 0.852
35 | R147Q | 0.0113 | -0.0201
36 | R147K | -0.354 | -0.267
37 | G6A | 0.239 | -0.652
38 | R39W | 0.0801 | 0.13
39 | R39I | -0.111 | 0.989
40 | D65P | -0.000175 | 0.99
41 | D65S | -0.464 | 0.216
42 | D65G | 0.134 | -0.165
43 | L150N | 0.899 | 0.249
44 | T145F | -0.258 | -0.0341
45 | L38N | 0.377 | 0.121
46 | I72Q | -0.00335 | 0.0078
47 | L53F | 0.298 | -0.0243
48 | F119W | 0.0722 | -0.0842

Row | Variant | scaled log2 fold change [1] | scaled log2 fold change [2]
49 | F119L | 0.0116 | –
50 | D161E | -0.0246 | 0.705
51 | G45Q | 0.0494 | 0.513
52 | A2N | -0.0435 | 0.135
53 | L17E | 0.227 | –
54 | L17V | -0.232 | –
55 | L17C | 0.0553 | 0.966
56 | R51V | -0.873 | -0.419
57 | R51K | -0.103 | -1.33
58 | I154P | 1.04 | 0.814
59 | S34Q | -0.0397 | -0.168
60 | S34T | 0.125 | -0.0688
61 | E125G | -0.304 | -0.096
62 | A15Q | 0.208 | 0.886
63 | E134C | 0.676 | 1.13
64 | D87N | -0.0848 | –
65 | D132V | 0.152 | -0.737
66 | V16K | 0.121 | 0.118
67 | V16A | -0.668 | –
68 | V94E | 0.00926 | -0.058
69 | V94Q | 0.235 | -0.226
70 | F71R | 1.04 | 1.38
71 | F71D | 1.1 | 1.37
72 | A172E | 0.236 | 0.926

Row | Variant | scaled log2 fold change [1] | scaled log2 fold change [2]
73 | A172M | -0.557 | -0.421
74 | Y142V | -0.226 | -0.606
75 | A141C | 0.249 | -1.33
76 | A141Q | 0.09 | 0.9
77 | D173L | -0.299 | 0.205
78 | S35F | -0.398 | 0.53
79 | L9Y | 0.485 | -0.192
80 | L9G | 0.0757 | 1.11
81 | R175M | -0.223 | 0.0945
82 | E107L | -0.267 | -0.452
83 | H27E | -0.316 | -0.0257
84 | L127Q | 0.446 | 0.00947
85 | T78V | 0.108 | -0.249
86 | N135R | -0.532 | 1.02
87 | R166G | 0.266 | -0.344
88 | K84C | 0.225 | 0.851
89 | R41T | 0.311 | 0.274
90 | T157P | 0.927 | 0.296
91 | I100T | 0.138 | -0.631
92 | S62C | -0.366 | -0.138
93 | E77F | -0.642 | 0.94
94 | G19W | 0.277 | -0.266
95 | R31T | -0.552 | -0.717
96 | I118A | 0.0431 | -0.147

Row | Variant | scaled log2 fold change [1] | scaled log2 fold change [2]
97 | S159F | -0.798 | 0.523
98 | K182S | 0.0077 | -0.584
99 | V69D | 1.04 | 1.26
100 | D136A | 0.243 | -0.0274
101 | D136R | 0.898 | 1.08
102 | P20T | 0.221 | –
103 | T68I | 0.0915 | 0.0716
104 | T68K | -0.155 | -0.329
105 | T68Q | 0.0568 | -0.103
106 | D139H | -0.062 | -0.315
107 | D139V | 0.0114 | –
108 | D139K | 0.896 | 0.86
109 | R8H | 0.292 | -0.336
110 | A174I | 0.163 | 0.249
111 | E64A | -0.335 | 1.19
112 | A13N | 0.0507 | -0.531
113 | H116F | 0.69 | 0.87
114 | S148C | 0.0537 | 0.319
115 | A111S | 0.397 | -0.445
116 | D99E | 0.144 | 0.199
117 | D99L | -0.286 | -0.152
118 | Q153K | 0.016 | 0.139
119 | T170H | -0.102 | -1.19
